In patent publication US8841274B2, “Protein arginine N-methyltransferase-5 method of cancer treatment” (priority 2009, dated 2014):

Experiments:
PRMT5 [1] = target: T1, PRMT5 (Homo sapiens, UniProt O14744); experiment: GST binding assay with U2OS cell lysate, PRMT5 immunoblot; set-up: The indicated GST proteins were incubated with U2OS cell lysate; endogenous in cells; host or cells: U2OS; details: GST-E2F-1 proteins incubated with U2OS cell lysate
Protocol: It was then assessed whether E2F-1 could interact with PRMT5 and thereafter the role of each R residue in mediating the interaction. […] The indicated GST proteins were incubated with U2OS cell lysate, and bound proteins immunoblotted using anti-GST (for input GST), DP-1 or PRMT5 antibodies. Binding to DP-1, the major heterodimeric partner for E2F-1 (Stevens and La Thangue 2003), served as a control since it bound equally to each of the E2F-1 proteins.
GST or GST tagged proteins (10 μg each) were incubated with agarose beads and damaged or undamaged U2OS cell lysates for 3 h. Beads were then washed with TNN buffer 3 times. SDS sample buffer was added to beads and samples were analysed by immunoblotting.
Target sequence in this assay (O14744 whole entry): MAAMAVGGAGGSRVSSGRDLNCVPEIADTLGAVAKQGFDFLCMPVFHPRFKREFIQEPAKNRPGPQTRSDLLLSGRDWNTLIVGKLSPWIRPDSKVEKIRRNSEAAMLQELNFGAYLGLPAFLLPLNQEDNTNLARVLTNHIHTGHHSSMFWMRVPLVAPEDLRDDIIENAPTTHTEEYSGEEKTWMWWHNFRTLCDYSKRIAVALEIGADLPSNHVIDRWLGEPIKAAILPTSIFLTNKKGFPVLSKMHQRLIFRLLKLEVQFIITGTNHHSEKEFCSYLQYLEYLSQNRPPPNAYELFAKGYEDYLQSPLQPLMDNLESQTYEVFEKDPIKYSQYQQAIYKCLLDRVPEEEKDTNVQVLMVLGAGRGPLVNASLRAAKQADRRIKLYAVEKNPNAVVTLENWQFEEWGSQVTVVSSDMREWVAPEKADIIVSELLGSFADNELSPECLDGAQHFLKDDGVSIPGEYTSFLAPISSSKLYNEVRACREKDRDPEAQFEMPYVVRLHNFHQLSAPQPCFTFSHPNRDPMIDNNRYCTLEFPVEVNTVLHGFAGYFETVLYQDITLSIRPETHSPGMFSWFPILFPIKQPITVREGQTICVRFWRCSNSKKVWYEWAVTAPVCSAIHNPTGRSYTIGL

DP-1 = target: T2, DP-1 (Homo sapiens, UniProt Q14186); experiment: Co-immunoprecipitation of ectopic E2F-1 with DP-1 in U2OS cells; assay type: cell-based; details: expression vector transfected into U2OS cells, HA11 IP
T2 construct: endogenous in cells; host or cells: U2OS
T2 sequence (Q14186 1-410): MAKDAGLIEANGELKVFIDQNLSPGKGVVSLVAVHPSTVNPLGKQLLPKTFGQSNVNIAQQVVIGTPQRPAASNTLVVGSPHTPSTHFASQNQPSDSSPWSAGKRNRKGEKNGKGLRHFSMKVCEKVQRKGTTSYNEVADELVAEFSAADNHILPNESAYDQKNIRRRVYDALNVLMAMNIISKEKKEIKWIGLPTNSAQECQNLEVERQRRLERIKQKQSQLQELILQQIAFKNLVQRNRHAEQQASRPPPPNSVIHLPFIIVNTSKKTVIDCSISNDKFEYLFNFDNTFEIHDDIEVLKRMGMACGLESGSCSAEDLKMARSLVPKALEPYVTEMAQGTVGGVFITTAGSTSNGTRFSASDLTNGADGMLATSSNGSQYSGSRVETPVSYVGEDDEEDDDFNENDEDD
Text: (§1) To establish whether E2F-1 was able to bind to PRMT5 in cells, the interaction between ectopic wild-type E2F-1 or KKK with PRMT5 was studied. […] Either a wild-type E2F-1 expression vector or a KKK expression vector was transfected into U2OS cells, and HA11 antibody was used for immunoprecipitation (IP) followed by immunoblotting with HA11 (E2F-1), PRMT5 or DP-1 as indicated. The level of input (In) protein is indicated. […] In contrast, binding to DP-1 was equivalent for both wild-type E2F-1 and KKK. […] Further, the RGRGR motif is necessary for the interaction, which also encompasses the site of PRMT5 methylation.
(§2) Cells were either left untransfected or transfected with expression vectors as indicated. At 48 h post transfection, cells were harvested in TNN buffer (50 mM Tris-HC1 [pH 7.4], 150 mM NaCl, 5 mM EDTA, 0.5% Ipegal, 50 mM NaF, 0.2 mM sodium orthovanadate and protease inhibitor cocktail (1 mM PMSF, leupeptin [1 μg/ml], aprotinin [1 μg/m1], and pepstatin A [1 μg/ml])) and rotated at 4° C. for 30 min to 1 h. The cell lysate was then homogenised, centrifuged at 11000 rpm for 10 min to remove cell debris and the supernatant collected. All lysates were normalized for protein concentration and, where appropriate, for transfection by β-galactosidase activity. […] Enhanced chemi-luminescence (Pierce Biotechnology, Rockford, Ill.) was used to visualize antibody binding.

PRMT5 [2] = target: T1, PRMT5; experiment: Co-immunoprecipitation of ectopic E2F-1 with PRMT5 in U2OS cells; assay type: cell-based; set-up: The indicated GST proteins were incubated with U2OS cell lysate; endogenous in cells; host or cells: U2OS; details: expression vector transfected into U2OS cells, HA11 IP
Text: as §1, §2
Target sequence in this assay (O14744 whole entry): as the sequence (O14744 whole entry) above

PRMT5 [3] = target: T1, PRMT5; experiment: In vitro methyltransferase assay of E2F-1 proteins; assay type: biochemical; set-up: made in house; host or cells: U2OS cells (transient transfection, anti-Flag immunoprecipitation, elution); details: about 1 μg protein, 3H labeled SAM; mutants compared with wild-type E2F-1
Protocol: To assess whether the RGRGR motif was a direct target for PRMT5 methylation, a series of mutant derivatives of E2F-1 were made in which each arginine (R) residue was substituted with a lysine residue (K; FIG. 1a), and the ability of the mutant derivative to be methylated in vitro then assessed. […] In FIG. 1b(i) each of the indicated proteins (about 1 μg) was used in the methylation reaction. In vitro methylated samples were analysed by SDS-PAGE as described below. E2F-1 is indicated. In FIG. 1b(ii) samples in FIG. 1b(i) were counted (3H cpm as indicated). Histones treated with PRMT5 served as the positive control. The data shown provide one example taken from two different experiments.
Flag-PRMT5 plasmid was transfected into U2OS cells for 48 h. Cells were lysed and Flag-PRMT5 was immunoprecipitated with agarose beads and then eluted. The elute was mixed with recombinant substrates (GST fusion proteins or histones) in methylation reaction buffer (50 mM Tris, 0.1 mM EDTA, 50 mM NaCl) with ^3H labeled SAM (as —CH3 group donor) to a volume of 40 μl and incubated at 30° C. for 90 min. Half of the reactions were then spotted onto p81 membrane circles (Whatman) and air dried. The membranes were then washed three times, 5 min each in 50 ml of wash buffer (46 mM NaHCO3, 4 mM Na2CO3, pH 9.2). After washing briefly with acetone, membranes were air dried, placed in scintillation vials, immersed in scintillation fluid (Beckman Coulter) and disintegrations per minute (DPM) measured in a scintillation counter. The other half of the reactions were run on SDS-PAGE gel and used to detect ^3H auto-radioisotope/methylation signal.
Target sequence in this assay (O14744 whole entry): as the sequence (O14744 whole entry) above
Target sequence in this assay (Q9BQA1 whole entry partner): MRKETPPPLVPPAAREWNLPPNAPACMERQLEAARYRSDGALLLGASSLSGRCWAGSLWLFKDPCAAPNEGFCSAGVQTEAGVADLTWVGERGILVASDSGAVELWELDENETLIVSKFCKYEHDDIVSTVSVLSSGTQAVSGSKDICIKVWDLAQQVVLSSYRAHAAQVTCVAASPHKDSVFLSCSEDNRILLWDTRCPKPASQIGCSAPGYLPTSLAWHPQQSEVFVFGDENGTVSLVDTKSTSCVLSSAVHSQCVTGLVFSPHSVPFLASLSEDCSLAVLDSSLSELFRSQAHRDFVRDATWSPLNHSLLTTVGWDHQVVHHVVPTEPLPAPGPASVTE

binding to PRMT5 (PRMT5 [1]): completely devoid of PRMT5 binding
binding to DP-1 in cells (DP-1): equivalent
co-immunoprecipitation with PRMT5 (PRMT5 [2]): not apparent
in vitro methylation by PRMT5 (PRMT5 [3]): could not be methylated by PRMT5
Substance: KKK: methylation-defective E2F-1 protein containing the mutations R109K, R111K and R113K
